The source of these data is PMC8863855.

This assay deals with CD19-Fc (CD19-IgG1 Fc fusion protein) (UniProt P15391). Description: flow cytometry on cells. As to conditions: for response (% Normalized Binding): n=3 independent donor replicates, untransduced background subtracted, normalized for % CAR-expressing T-cells, read off a plot; for response (% of cells in CD19-Fc binding gate): one representative example, untransduced 2%, not normalized, CD19-Fc concentration not stated for this panel, parent: 46. A general note: In flow cytometry, cells or beads pass a laser one at a time.

The mark [1] stands for this setting: CD19-Fc 1.0µg/mL, parent: est. 73.
Setting [2] is: CD19-Fc 0.5µg/mL, parent: est. 65.

As for “F-2 second generation (CD28+CD3ζ) CAR with the unmodified FMC63 scFv G01: VH CDR3 …>… (G>A at CDR3 position 5)”, the response (% Normalized Binding) under setting [1] is 4.4. Under “myc+ 49% (parent F-2 myc+ 43%)”, the response (% of cells in CD19-Fc binding gate) turned out to be 2.

As to “F-2 second generation (CD28+CD3ζ) CAR with the unmodified FMC63 scFv G02: VH CDR3 …>… (G>A at CDR3 position 6)”, under setting [1], the response (% Normalized Binding) worked out at 5.6. Further, the response (% of cells in CD19-Fc binding gate) (myc+ 47% (parent F-2 myc+ 43%)) turned out to be 2.

“F-2 second generation (CD28+CD3ζ) CAR with the unmodified FMC63 scFv Y03: VH CDR3 …>… (Y>A at CDR3 position 4)”: the response (% Normalized Binding) under setting [2] worked out at 1.2 and the response (% Normalized Binding) under setting [1] was 8.6. The response (% of cells in CD19-Fc binding gate) (myc+ 43% (parent F-2 myc+ 43%)) came out at 4.

For the substance “F-2 second generation (CD28+CD3ζ) CAR with the unmodified FMC63 scFv Y04: VH CDR3 …>… (Y>A at CDR3 position 8)”, the response (% Normalized Binding) under setting [2] was found to be 41 and the response (% Normalized Binding) under setting [1] was found to be 65. Further, under “myc+ 78% (parent F-2 myc+ 43%)”, the response (% of cells in CD19-Fc binding gate) is 28.

“F-2 second generation (CD28+CD3ζ) CAR with the unmodified FMC63 scFv Y05: VH CDR3 …>… (Y>A at CDR3 position 12)”: the response (% Normalized Binding) was 70 under setting [2] and 100 under setting [1]. Besides, for the setting “myc+ 46% (parent F-2 myc+ 43%)”, the response (% of cells in CD19-Fc binding gate) amounted to 64.
